Measured values from IntAct's records for PubMed 10854325.

B1: Interleukin-1 receptor-associated kinase 1 (Mus musculus), Q62406 (parent)
chain: MAGGPGPGEPVVPGAQHFLYEVPPWVMCRFYKVMDALEPADWCQFAALIVRDQTELRLCERSEQRTASVLWPWINRNARVADLVHILTHLQLLRARDIITAWHPPAPVVPPSTAAPRPSSISAGSEAGDWSPRKLQSSASTFLSPAFPGSQTHSESELLQVPLPVSLGPPLPSSAPSSTKSSPESPVSGLQRAHPSPFCWPFCEISQGTCNFSEELRIGEGGFGCVYRAVMRNTTYAVKRLKEEADLEWTMVKQSFLTEVEQLSRFRHPNIVDFAGYCAESGLYCLVYGFLPNGSLEDQLHLQTQACSPLSWPQRLDILLGTARAIQFLHQDSPSLIHGDIKSSNVLLDERLMPKLGDFGLARFSRFAGAKASQSSTVARTSTVRGTLAYLPEEYIKTGRLAVDTDTFSFGVVILETLAGQRAVRTQGAKTKYLKDLIEDEAEEAGVTLKSTQPTLWVGVATDAWAAPIAAQIYKKHLDSRPGPCPPQLGLALAQLACCCMHRRAKKRPPMTQVYKRLEGLQAGPPWELEVAGHGSPSPQENSYMSTTGSAQSGDEPWQPLVVTTRAPAQAAQQLQRSPNQPVESDESVPGLSATLHSWHLTPGSHPSPASFREASCTQGGTTRESSVRSSPGFQPTTMEGSPTGSSSLLSSEPPQIIINPARQKMVQKLALYEEGVLDSLQLLSSGFFPGLDLEPEKSQGPEESDEFQS

Variants of: B1
Settings: with tolip_mouse Tollip

| Variant | effect of a mutation on the interaction |
| --- | --- |
| T66A | decreasing interaction |
